Measured values published in patent US20190016816A1 (APTEVO RESEARCH AND DEVELOPMENT, published 2019).

T1: human 5T4 on cells (human, UniProt Q13641 32-420)
T1 construct: also called TPBG; hu5T4
T1 sequence: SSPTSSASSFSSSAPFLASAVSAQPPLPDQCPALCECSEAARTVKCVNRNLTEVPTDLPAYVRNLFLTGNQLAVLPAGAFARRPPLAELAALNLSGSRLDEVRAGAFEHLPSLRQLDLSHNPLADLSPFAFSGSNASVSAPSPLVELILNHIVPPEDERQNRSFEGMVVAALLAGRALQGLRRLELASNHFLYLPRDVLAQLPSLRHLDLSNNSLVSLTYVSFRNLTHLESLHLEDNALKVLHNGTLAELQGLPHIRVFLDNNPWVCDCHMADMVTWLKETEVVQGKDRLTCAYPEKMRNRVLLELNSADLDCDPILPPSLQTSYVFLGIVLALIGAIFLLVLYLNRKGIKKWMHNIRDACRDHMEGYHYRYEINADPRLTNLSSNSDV

B1: ALG.APV-210 (bispecific antibody)
chain: EVQLLESGGGLVQPGGSLRLSCAASGFTFSHGSMYWVRQAPGKGLEWVSSISSGSGSTYYADSVKGRFTISHDNSKNTLYLQMNSLRAEDTAVYYCARSSYYGSYYSIDYWGQGTLVTVSSGGGGSGGGGSGGGGSGGGGSDIQMTQSPSSLSASVGDRVTITCRASQSISSYLNWYQQKPGKAPKLLIYAASSLQSGVPSRFSGSGSGTDFTLTISSLQPEDFATYYCQQYYDNLPTFGQGTKLEIKEPKSSDKTHTCPPCPAPEAAGAPSVFLFPPKPKDTLMISRTPEVTCVVVDVSHEDPEVKFNWYVDGVEVHNAKTKPREEQYNSTYRVVSVLTVLHQDWLNGKEYKCAVSNKALPAPIEKTISKAKGQPREPQVYTLPPSRDELTKNQVSLTCLVKGFYPSDIAVEWESNGQPENNYKTTPPVLDSDGSFFLYSKLTVDKSRWQQGNVFSCSVMHEALHNHYTQKSLSLSPGSGGGGSGGGGSGGGGSPSEVQLLESGGGLVQPGGSLRLSCAASGFTFSSYAMSWVRQAPGKCLEWVSAISGSGGSTYYADSVKGRFTISRDNSKNTLYLQMNSLRAEDTAVYYCARYYGGYYSAWMDYWGQGTLVTVSSGGGGSGGGGSGGGGSGGGGSDIQMTQSPSSLSASVGDRVTITCRASQSISSFLNWYQQKPGKAPKLLIYAASSLQSGVPSRFSGSGSGTDFTLTISSLQPEDSATYYCQQTYGYLHTFGCGTKLEIKR
notes: Optimized ADAPTIR scFv-Fc-scFv homodimer with stabilizing disulfide in the 1210 scFv; also called 5T4-CD137 bispecific antibody
B2: biotinylated ALG.APV-210 (bispecific antibody)
chain: B1 chain
notes: also called ALG.APV-210 (biotinylated for FACS detection)

Experiments:
FcγRI (CD64) = target: T2, FcγRI (CD64) (UniProt P12314 16-374, limits assumed); assay: flow cytometry, CHO cells stably expressing CD64, fluorescent anti-human IgG secondary, MFI (mean)
T2 construct: whole, on cells
T2 sequence (P12314 16-374 limits assumed): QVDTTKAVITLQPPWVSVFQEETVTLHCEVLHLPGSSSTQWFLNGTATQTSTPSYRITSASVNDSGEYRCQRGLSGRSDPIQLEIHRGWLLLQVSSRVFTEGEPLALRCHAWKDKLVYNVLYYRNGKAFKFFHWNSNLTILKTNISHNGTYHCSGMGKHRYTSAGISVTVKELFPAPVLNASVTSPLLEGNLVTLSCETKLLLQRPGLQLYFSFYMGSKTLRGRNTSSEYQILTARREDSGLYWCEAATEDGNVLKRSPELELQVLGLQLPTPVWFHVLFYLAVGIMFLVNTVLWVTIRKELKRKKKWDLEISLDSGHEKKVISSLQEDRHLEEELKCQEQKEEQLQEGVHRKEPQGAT
Description: ALG.APV-210 contains mutations introduced to prevent interaction with Fcγ receptors (FcγR) that could lead to FcγR-mediated T-cell activation or ADCC, ADCP, CDC etc. Binding of ALG.APV-210 was therefore tested on CHO cell transfectants stably expressing the following FcγR: FcγRI (CD64), FcγRIIa (CD32a His131), FcγRIIb (CD32b), FcγRIIIa (CD16a Val158 and CD16a Phe158), and FcγRIIIb (CD16b). Untransfected CHO cells were used as negative control. A control human IgG1 molecule was used as a positive control. Different concentrations of ALG.APV-210 or control IgG1 were incubated with the FcγR-expressing cell lines, washed, and labeled with a secondary anti-human IgG reagent. Binding of ALG.APV-210 and the control IgG1 was detected by flow cytometry.

[1] = target: T3, cynomolgus CD137 on cells (cynomolgus macaque, UniProt A9YYE7 24-254); assay: flow cytometry, normalized percentage of CD8 T cells (gated from CD3-stimulated cynomolgus PBMC) bound by the biotinylated antibody, pooled data of 2 exp, n=6 donors
T3 construct: whole, on cells; also called CHO-K1/cynomolgus CD137 cell line; cynomolgus monkey CD137 on CD3-stimulated primary CD8 T cells
T3 sequence (A9YYE7 entry or part of it): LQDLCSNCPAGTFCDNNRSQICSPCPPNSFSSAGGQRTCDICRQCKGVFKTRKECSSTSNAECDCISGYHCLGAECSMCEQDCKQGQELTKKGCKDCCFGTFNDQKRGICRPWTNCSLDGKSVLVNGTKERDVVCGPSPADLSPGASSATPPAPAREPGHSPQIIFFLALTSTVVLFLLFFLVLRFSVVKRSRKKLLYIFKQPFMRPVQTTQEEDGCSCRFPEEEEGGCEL
Protocol: (§1) Following 48 h of incubation with or without CD3, human and cynomolgus PBMC were harvested, pooled, recounted and diluted in FACS buffer (PBS+0.5% BSA, 0.05% NaN₃) to a concentration of 5×10⁶ cells/mL. 50 μL (0.25×10⁶ cells) of cell solution was added to a 96-well FACS staining plate (Falcon #351190). Following 10 min of Fc-blocking in RT using Beriglobin (hIgG, 200 μg/mL), cells were washed in FACS buffer and then incubated for 1 h in 4° C. with 100 μL of the biotinylated ALG.APV-210 or negative control. The antibodies were added in a serial dilution starting either at 5 μg/mL titrating down in a 12 step ⅓ dilution down to […] (exp 1) or 1 μg/mL titrating down in a 12 step ½ dilution down to 0.0005 μg/mL (exp 2). […] Cells were analysed for ALG.APV-210 binding using flow cytometry by gating on viable, single cells expressing CD3 and CD8. MFI values (FMO subtracted) from 2 independent experiments as well as normalized pooled data from 2 experiments and EC₅₀-values were determined and plotted using GraphPad Prism 7, non-linear regression log (agonist) vs. normalized response—variable slope, n=6 donors/group.

human 5T4 on cells [2] = target: T1, human 5T4 on cells; assay: flow cytometry, B16-hu5T4 cells, streptavidin-PE, normalized MFI of 2 pooled experiments
Protocol: (§2) Prior to the FACS staining, all cell lines were characterized for their 5T4 expression levels using a receptor density kit (Quantum Simply Cellular, anti-human IgG, Bangs Laboratories, Inc). Adherent cell lines were cultured according to their supplier's instructions and were harvested from their cell culture flasks using Trypsin/EDTA, counted in R10 medium in a Burker chamber, and diluted in FACS buffer (PBS+0.5% BSA, 0.05% NaN₃) to a concentration of 4×10⁶ cells/mL. 50 μL (0.20×10⁶) of cell solution was added to a 96-well FACS staining plate (Falcon #351190). Cells were incubated for 20 min in 4° C. with 50 μL of the biotinylated ALG.APV-210 (2× final concentration). The antibodies were added in a serial dilution starting at 20 μg/mL titrating down in a 12 step ½ dilution down to 0.010 μg/mL. Following 2× washing with FACS buffer, cells were incubated for 30 min in 4° C. with 100 μL of a secondary antibody (streptavidin-PE, BD #554061, diluted 1/500). […] Cells were analysed for ALG.APV-210 binding using flow cytometry (FACSVerse) by gating on single cells. MFI values (secondary antibody only subtracted) from 1 out of 2 independent experiments, as well as normalized data and EC₅₀-values of pooled data from 2 experiments were determined and plotted using GraphPad Prism 7, non-linear regression log (agonist) vs. normalized response—variable slope.

human 5T4 on cells [3] = target: T1, human 5T4 on cells; assay: flow cytometry, HT-29 cells, streptavidin-PE, normalized MFI of 2 pooled experiments
Protocol: as §2

human CD137 on cells = target: T4, human CD137 on cells (human, UniProt Q07011 24-255); assay: flow cytometry, normalized percentage of CD8 T cells (gated from CD3-stimulated human PBMC) bound by the biotinylated antibody, pooled data of 2 exp, n=6 donors
T4 construct: also called 4-1BB; TNFRSF9 (CHO-K1/human CD137 cells)
T4 sequence (Q07011 24-255 limits assumed): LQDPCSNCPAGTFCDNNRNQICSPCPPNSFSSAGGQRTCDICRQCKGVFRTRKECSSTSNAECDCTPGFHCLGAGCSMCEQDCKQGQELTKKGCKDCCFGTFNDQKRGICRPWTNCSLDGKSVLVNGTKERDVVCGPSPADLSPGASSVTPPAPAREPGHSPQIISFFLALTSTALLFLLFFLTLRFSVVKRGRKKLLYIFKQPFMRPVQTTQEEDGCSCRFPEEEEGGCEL
Protocol: as §1

Binder	binding result (FcγRI (CD64))	EC50 [1] [nM]	EC50 (human 5T4 on cells [2]) [nM]	EC50 (human 5T4 on cells [3]) [nM]	EC50 (human CD137 on cells) [nM]
B1	no binding (tested: 1000 nM)				
B2		0.019	14	12	0.027
